Biological target: MTTR (recombinant monomeric version of TTR), as non-native oligomers (human) (UniProt P02766)

For “VAVHVF (truncated probe B-1, minimal binding competent sequence) (peptide)”, which incorporation compared to probe B-1 is on record?
Its incorporation compared to probe B-1 is 90 % less.

— article PMC5628019
